Values quoted from earlier work in publication PMC3557855.

Assays:
Experiment in all cases: SPR
GlyCAM-1 (Mus musculus) = GlyCAM-1 (Mus musculus) (UniProt Q02596)
PSGL-1 (Homo sapiens) = PSGL-1 (Homo sapiens) (UniProt Q14242)
ESL-1 = ESL-1 (UniProt Q61543)
UniProt Q61543, sequence (Q61543 28-1141): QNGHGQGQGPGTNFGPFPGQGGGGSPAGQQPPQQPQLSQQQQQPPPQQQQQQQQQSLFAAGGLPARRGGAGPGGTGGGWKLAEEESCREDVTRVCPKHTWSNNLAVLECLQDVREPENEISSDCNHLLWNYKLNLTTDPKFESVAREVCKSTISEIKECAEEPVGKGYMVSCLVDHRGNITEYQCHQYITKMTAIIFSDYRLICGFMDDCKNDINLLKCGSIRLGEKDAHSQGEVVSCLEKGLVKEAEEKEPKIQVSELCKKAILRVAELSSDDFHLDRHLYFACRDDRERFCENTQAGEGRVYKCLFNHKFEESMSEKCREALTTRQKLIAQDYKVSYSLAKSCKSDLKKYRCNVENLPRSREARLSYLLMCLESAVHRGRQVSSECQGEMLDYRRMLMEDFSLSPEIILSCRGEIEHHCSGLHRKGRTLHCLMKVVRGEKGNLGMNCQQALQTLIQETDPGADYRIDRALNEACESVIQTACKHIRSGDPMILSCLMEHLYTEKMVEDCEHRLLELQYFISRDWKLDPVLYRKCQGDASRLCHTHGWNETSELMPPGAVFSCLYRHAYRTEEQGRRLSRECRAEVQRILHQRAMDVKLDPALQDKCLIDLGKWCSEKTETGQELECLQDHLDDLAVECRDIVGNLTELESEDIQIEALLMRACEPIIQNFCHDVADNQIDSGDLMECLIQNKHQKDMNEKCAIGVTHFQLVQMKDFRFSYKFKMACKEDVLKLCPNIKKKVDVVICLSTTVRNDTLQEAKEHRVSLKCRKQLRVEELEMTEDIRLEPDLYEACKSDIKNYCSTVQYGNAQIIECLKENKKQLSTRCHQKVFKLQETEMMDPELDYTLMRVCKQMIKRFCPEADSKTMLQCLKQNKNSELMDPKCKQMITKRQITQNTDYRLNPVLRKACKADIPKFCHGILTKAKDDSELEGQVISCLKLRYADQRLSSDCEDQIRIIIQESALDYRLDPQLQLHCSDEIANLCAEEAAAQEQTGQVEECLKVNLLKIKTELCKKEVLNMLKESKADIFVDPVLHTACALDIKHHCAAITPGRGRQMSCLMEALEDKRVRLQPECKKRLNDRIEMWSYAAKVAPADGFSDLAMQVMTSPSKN

UniProt Q14242, sequence (Q14242 42-320): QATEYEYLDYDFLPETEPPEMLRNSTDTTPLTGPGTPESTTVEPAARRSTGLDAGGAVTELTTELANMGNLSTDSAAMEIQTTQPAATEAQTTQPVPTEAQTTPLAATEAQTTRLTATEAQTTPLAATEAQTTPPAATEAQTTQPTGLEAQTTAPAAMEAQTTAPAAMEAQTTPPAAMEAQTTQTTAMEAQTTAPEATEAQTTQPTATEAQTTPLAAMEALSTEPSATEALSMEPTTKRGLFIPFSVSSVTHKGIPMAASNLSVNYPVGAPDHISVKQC
UniProt Q02596, sequence (Q02596 20-151): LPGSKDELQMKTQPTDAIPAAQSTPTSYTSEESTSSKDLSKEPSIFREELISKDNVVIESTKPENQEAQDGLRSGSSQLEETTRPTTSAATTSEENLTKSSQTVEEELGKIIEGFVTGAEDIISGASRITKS

L-selectin (from UniProt P18337)
Kd (GlyCAM-1 (Mus musculus)): 108 µM

L-selectin (from UniProt P14151)
Kd (PSGL-1 (Homo sapiens)): 47 µM

E-selectin (from UniProt P16581)
Kd (ESL-1): 62 µM
